The numbers were not newly measured in article PMC5535146, which cites them from elsewhere.

Series [1] deals with calmodulin (UniProt P0DP23).
Series [2] addresses calmodulin (UniProt P0DP23). This is another data set of the same source.

Read-outs that look alike come from different tables or passages of the source.

What is called Kd is the equilibrium constant for the complex coming apart. Turning to “CyaA adenylate cyclase AC (from UniProt P0DKX7)”, in series [1], the Kd is 0.2 nM.

Consider edema factor (from UniProt P40136), for which the Kd in series [2] was 20 nM.
